Measurements published in paper PMC5017159.

Experiments:
[1] = biological target: human heat shock protein 70 (hHsp70) (human) (UniProt P0DMV8); experiment: BLI; Octet Red; biotinylated hHsp70 immobilised on streptavidin tips, dipped into E. coli GAPDH (39.5, 59.3, 88.9, 133.3 and 200 nM) in PBS; association 600 s, dissociation 900 s; 1:1 model
human GAPDH (human) = human GAPDH (human) (UniProt P04406); experiment: BLI; Octet Red; biotinylated human GAPDH immobilised on streptavidin tips, dipped into hHsp70 (2.05, 5.12, 12.8, 32 and 80 nM) in PBS; association 600 s, dissociation 900 s; 1:1 model
Chain of UniProt P04406 (P04406 whole entry): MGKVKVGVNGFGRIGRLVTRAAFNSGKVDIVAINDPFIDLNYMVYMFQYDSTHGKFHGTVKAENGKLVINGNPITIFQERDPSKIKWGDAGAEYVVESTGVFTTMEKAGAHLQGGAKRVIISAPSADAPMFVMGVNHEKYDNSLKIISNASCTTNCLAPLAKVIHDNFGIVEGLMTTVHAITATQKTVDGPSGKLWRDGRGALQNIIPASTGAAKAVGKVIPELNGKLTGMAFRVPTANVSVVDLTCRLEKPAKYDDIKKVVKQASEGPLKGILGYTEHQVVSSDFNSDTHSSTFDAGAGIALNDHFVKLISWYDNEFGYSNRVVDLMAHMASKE

| Kd [1] [nM] | koff [1] [s⁻¹] | kon [1] [M⁻¹ s⁻¹] | Kd (human GAPDH (human)) [nM] | koff (human GAPDH (human)) [s⁻¹] | kon (human GAPDH (human)) [M⁻¹ s⁻¹] | Substance |
| --- | --- | --- | --- | --- | --- | --- |
| 8.2 | 0.00024 | 29300 |  |  |  | E. coli glyceraldehyde 3-phosphate deshydrogenase (GAPDH), recombinant (from UniProt P0A9B2 1-331) (enzyme) |
|  |  |  | 1.3 | 9.3e-05 | 72400 | human heat shock protein 70 (hHsp70) (from UniProt P0DMV8 1-641) (natural protein) |
